Laboratory results taken from paper PMC9359501 (Med (New York, N.Y.), 2022).

Biological target: SARS-CoV-2 Spike S1 (Omicron), His-tagged (SARS-CoV-2 Omicron B.1.1.529 BA.1, strain)
Assay: SPR

B1: S309 (sotrovimab) reference clone neutralizing antibody (antibody, V domains shown)
VH: not shown
VL: EIVLTQSPGTLSLSPGERATLSCRASQTVSSTSLAWYQQKPGQAPRLLIYGASSRATGIPDRFSGSGSGTDFTLTISRLEPEDFAVYYCQQHDTSLTFGGGTKVEIK
Kd: 24.5 nM
koff: 0.000395 s⁻¹
kon: 16200 M⁻¹ s⁻¹

B2: LY-CoV1404 (bebtelovimab) reference clone neutralizing antibody (antibody, V domains shown)
VH: QITLKESGPTLVKPTQTLTLTCTFSGFSLSISGVGVGWLRQPPGKALEWLALIYWDDDKRYSPSLKSRLTISKDTSKNQVVLKMTNIDPVDTATYYCAHHSISTIFDHWGQGTLVTVSS
VL: QSALTQPASVSGSPGQSITISCTATSSDVGDYNYVSWYQQHPGKAPKLMIFEVSDRPSGISNRFSGSKSGNTASLTISGLQAEDEADYYCSSYTTSSAVFGGGTKLTVL
Kd: 85.5 nM
koff: 0.00677 s⁻¹
kon: 79200 M⁻¹ s⁻¹
